Results published in patent US20240239875A1 (published 2024).
Positions count from the first letter of the chain named.

B1: 9-F6-A (antibody, V domains shown)
VH: EVQLQQSGPELVKPGASVKMSCKASGYTFTSYIMHWVKQKPGQGLEWIGYILPYNDGTKYNEKFKGKATLTSDKSSSTAYMELRSLTSEDSAVYYCARWGYSNFLDSWGQGTTLTVSS
VL: DIQMTQTTSSLSASLGDRVTISCRASQDINNYLNWYQQKPDGTVKLLIYYTSRLHSGVPSRFSGSGSGTDYSLTIRNLEQEDIATYFCQQGNTLPPTFGGGTKLEIK
B2: 7-D7-A (antibody, V domains shown)
VH: QVQLKESGPGLVAPSQSLSITCTVSGFSLTSYAISWVRQPPGKGLEWLGVIWPGGGTNYNSALKSRLSISKDNSKSQVFLKMNSLQTDDTAKYYCARTGYYFDYWGQGTTLTVSS
VL: QLILTQSPAIMSASPGEKVTMTCSASLSVNYMYWFQQKPGTSPKRWIHDTSKLASGVPARFSGSGSGTSYSLTISSMEAEDAATYYCQQWSSNPPMYTFGGGTKLEIK
B3: 8-A17-A (antibody, V domains shown)
VH: B2 VH with I51V, S70N, A91G, K92R, Y101H
VL: B2 VL with L2I, I3V, A25V, L27S, N30S, Y33H, F35Y, P39S, H48Y
B4: 1-B11-A (antibody, V domains shown)
VH: QVQLQQSGPELVKPGASVKISCKASGYTFTDHYINWVKQRPGQGLEWIGWIFPGSGSTYYNEQFKGKATLTVDKSSNTAYMLLSSLTSEDSAVYFCARSGGLRLGFAYWGQGTLVTVSA
VL: B1 VL with N30S, R76S, A84S, G91V, P96Y
B5: 1-L10-A (antibody, V domains shown)
VH: EVKLEESGGGLVQPGGSMKLSCVASGFTFNNYWMNWVRQSPEKGLEWVAQMRLKSDNYATHYAESVKGRFTISRDDSKSSVYLQMNNLRAEDTGIYYCIEGYWTYWGQGTLVTVSA
VL: QIVLTQSPAIMSASLGERVTMTCTASSSVSSSYLHWYQQKPGSSPKLWIYSTSNLASGVPARFSGNGSGTSYSLTISSMEAEDAATYYCLQYHRSPPYTFGGGTKLEIK
B6: 2-G20-A (antibody, V domains shown)
VH: EVQLQQSGPELVKPGASVKMSCKASGYTFPSYVLHWVKQKPGQGLEWIGYIYPYNDGTNYNEKFKGKATLTSDKSSSTAYMELSSLTSEDSAVYYCARGDYGDSAWFPYWGQGTLVTVSA
VL: DIVLTQSPASLAVSLGQRATISCRASKSVSTSGYSYMHWYQQKPGQPPKLLIYLASNLKSGVPARFSGGGSGTDFTLNIHPVEEEDAATYYCQLSRELPWTFGGGTKLEIK
B7: 6-O12-A (antibody, V domains shown)
VH: QVQLQQPGTELVKPGASVKLSCKASGYTFTSYWMHWVKQRPGQGLEWIGNINPSNGGTNYNEKFRSKATLTVDKSSSTAYMQLSSLTSEDSAVYYCARLGWFLPLGSWGQGTTLTVSS
VL: QIVLTQSPAIMSASLGEVITLTCSASSSVSYMHWYQQKSGTSPKLLIYSTSNLASGVPSRFSGSGSGTFYSLTISSVEAEDAADYYCHQWSGYMYTFGGGTKLEIK

How the values were obtained:
Assay in all cases: ELISA
[1] = biological target: T1, HCoV229E spike protein (HCoV-229E, UniProt P15423 17-1103)
T1 chain: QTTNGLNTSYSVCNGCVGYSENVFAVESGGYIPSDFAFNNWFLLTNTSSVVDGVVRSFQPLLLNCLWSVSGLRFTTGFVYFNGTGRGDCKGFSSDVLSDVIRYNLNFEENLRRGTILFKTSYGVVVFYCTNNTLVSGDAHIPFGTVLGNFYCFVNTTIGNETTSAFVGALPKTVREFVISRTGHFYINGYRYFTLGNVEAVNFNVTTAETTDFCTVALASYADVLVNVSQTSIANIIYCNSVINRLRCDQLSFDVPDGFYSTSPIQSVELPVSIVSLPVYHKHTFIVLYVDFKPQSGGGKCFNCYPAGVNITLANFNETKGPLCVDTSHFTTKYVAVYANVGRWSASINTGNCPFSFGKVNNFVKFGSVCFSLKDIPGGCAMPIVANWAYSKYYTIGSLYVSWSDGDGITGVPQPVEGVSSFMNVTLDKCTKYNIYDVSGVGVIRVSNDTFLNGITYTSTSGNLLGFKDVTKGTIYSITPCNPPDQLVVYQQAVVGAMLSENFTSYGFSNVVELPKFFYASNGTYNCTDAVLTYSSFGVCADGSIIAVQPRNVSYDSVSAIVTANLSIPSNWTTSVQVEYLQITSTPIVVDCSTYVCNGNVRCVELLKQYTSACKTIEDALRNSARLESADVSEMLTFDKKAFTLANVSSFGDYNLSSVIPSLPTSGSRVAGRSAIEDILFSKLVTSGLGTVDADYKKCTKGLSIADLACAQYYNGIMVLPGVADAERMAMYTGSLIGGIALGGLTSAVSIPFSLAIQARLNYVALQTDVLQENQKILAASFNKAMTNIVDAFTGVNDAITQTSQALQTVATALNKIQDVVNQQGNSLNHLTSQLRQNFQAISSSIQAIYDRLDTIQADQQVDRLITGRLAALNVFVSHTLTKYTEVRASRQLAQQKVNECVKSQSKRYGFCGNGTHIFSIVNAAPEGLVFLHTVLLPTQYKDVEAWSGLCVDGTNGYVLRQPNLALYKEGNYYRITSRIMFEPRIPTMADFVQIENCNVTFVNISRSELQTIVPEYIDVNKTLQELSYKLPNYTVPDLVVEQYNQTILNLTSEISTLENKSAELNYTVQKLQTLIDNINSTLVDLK

[2] = biological target: T2, MERS spike protein (MERS-CoV, UniProt K9N5Q8 18-1296)
T2 chain: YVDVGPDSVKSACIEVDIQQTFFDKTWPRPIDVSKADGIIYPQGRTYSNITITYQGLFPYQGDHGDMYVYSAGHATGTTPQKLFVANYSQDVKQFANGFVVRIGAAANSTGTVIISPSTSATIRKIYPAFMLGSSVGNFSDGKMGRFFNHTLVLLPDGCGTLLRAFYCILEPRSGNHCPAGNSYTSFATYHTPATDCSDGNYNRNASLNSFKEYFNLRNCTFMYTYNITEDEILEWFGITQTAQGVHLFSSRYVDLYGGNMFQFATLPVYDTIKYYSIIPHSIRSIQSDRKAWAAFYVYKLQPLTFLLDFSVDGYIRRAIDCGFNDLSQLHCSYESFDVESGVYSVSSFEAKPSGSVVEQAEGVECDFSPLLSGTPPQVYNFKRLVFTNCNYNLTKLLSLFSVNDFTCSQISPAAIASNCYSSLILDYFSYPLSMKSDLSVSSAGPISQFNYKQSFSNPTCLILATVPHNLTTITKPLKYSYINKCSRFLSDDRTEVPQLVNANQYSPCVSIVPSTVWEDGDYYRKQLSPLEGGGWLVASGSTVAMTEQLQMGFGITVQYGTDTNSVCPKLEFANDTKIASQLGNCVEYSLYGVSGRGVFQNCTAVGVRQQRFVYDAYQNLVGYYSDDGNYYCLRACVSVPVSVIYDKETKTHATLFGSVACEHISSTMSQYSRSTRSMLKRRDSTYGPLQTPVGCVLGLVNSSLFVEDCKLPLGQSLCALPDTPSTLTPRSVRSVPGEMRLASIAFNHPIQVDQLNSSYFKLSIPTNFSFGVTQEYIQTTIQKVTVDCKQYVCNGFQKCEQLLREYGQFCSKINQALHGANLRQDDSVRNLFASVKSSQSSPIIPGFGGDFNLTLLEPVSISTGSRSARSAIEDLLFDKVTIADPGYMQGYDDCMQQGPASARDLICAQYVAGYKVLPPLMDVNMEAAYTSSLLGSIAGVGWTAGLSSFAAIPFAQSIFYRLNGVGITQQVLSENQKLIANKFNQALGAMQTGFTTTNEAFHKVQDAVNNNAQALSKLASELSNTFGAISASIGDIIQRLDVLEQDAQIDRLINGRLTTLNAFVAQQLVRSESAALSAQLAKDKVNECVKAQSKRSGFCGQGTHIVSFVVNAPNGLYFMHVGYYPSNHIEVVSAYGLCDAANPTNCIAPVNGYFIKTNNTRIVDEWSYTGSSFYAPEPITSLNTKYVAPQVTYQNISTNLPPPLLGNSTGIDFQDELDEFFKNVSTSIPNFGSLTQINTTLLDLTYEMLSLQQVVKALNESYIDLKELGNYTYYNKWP

[3] = biological target: SARS-CoV-2 prefusion stabilized trimer protein (WIV02 isolate spike protein) (UniProt P0DTC2 14-1213)
[4] = biological target: SARS-CoV-1 spike protein (SARS-CoV-1, UniProt P59594 14-1195)

Binder | EC50 [1] [nM] | EC50 [2] [nM] | EC50 [3] [nM] | EC50 [4] [nM]
B1 | 0.03 | 1.67 | 0.59 | 0.46
B2 | 0.13 | 0.9 | 0.72 | 3.05
B3 | 0.01 | 0.49 | 0.27 | 0.36
B4 |  | 0.63 | 10.7 | 0.55
B5 | 0.12 | 3.47 | 111 | 5.27
B6 | 0.1 | 8.71 | 1.83 | 1.44
B7 | 0.15 | 0.25 | 0.39 | 0.24
